Our source for the activity and activity (% RFI converted to RFII) values is patent publication US5292651.

Data set [1] addresses T1, NaeI restriction endonuclease (recombinant, crude extract of NEB#777) T2A (Nocardia aerocolonigenes) (UniProt P50187).
T1 sequence: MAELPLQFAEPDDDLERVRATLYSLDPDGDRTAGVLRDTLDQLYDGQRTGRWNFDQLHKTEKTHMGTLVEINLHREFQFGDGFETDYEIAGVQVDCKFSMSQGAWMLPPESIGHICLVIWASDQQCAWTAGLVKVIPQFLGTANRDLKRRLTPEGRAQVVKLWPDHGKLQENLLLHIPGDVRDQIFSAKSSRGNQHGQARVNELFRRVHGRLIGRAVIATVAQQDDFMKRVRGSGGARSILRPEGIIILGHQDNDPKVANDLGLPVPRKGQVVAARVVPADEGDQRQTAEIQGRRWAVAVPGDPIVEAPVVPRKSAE
In words: cleavage_in_vitro. The settings on record: PstI-codigested pBR322, NEBuffer 1, 37 C, 1 h; after overnight IPTG induction.

The target of data set [2] is T2, NaeI restriction endonuclease (recombinant, from pCTnaeIR16-1) T2A (Nocardia aerocolonigenes) (UniProt P50187).
T2 sequence: T1 sequence
In words: cleavage_in_vitro. The conditions noted are these: 60 U, 4 h, 37 C, 10 mM MgCl2; nonspecific nicking test.

Regarding pBR322 plasmid DNA, the activity in data set [1] amounted to 77000 U/g cells.
Regarding phiX174 RFI DNA, in data set [2], the activity (% RFI converted to RFII) is less than 5.
